Measured values taken from US20220119825A1, “SCALABLE PEPTIDE-GPCR INT[…] SYSTEMS” (THE TRUSTEES OF COLUMBIA UNIVERSITY IN THE CITY OF NEW YORK, priority 2019, published 2022).

Experiments:
Test in all cases: cell-based or functional assay
[1] = target: T1, Cgu.Ste2, Ste2-like mating GPCR of Candida (Pichia) guilliermondii (Candida (Pichia) guilliermondii)
T1 chain: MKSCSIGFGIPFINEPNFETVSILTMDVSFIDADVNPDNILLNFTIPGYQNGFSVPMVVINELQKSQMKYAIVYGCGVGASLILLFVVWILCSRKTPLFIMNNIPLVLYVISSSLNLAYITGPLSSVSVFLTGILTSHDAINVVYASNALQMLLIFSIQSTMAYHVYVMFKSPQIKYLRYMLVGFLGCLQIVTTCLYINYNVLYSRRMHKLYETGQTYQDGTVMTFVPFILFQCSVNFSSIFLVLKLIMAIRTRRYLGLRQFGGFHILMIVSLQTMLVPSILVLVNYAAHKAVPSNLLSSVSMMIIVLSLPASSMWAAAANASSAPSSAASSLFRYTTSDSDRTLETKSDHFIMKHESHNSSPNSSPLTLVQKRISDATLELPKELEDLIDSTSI

[2] = target: T2, Zr.Ste2, Ste2-like mating GPCR of Zygosaccharomyces rouxii (Zygosaccharomyces rouxii)
T2 chain: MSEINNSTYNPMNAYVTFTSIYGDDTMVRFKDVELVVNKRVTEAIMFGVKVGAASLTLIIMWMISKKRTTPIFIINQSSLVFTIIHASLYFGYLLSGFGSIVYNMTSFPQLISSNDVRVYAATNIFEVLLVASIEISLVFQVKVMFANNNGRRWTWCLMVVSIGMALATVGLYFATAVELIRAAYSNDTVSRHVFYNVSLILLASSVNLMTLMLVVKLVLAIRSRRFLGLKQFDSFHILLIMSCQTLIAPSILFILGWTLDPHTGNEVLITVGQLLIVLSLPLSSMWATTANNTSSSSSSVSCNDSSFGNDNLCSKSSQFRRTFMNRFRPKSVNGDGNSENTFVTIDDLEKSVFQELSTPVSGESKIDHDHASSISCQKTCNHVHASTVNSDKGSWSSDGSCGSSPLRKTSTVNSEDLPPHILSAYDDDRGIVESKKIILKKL

[3] = target: T3, Ca.Ste2, Ste2-like mating GPCR of Candida albicans (Candida albicans)
T3 chain: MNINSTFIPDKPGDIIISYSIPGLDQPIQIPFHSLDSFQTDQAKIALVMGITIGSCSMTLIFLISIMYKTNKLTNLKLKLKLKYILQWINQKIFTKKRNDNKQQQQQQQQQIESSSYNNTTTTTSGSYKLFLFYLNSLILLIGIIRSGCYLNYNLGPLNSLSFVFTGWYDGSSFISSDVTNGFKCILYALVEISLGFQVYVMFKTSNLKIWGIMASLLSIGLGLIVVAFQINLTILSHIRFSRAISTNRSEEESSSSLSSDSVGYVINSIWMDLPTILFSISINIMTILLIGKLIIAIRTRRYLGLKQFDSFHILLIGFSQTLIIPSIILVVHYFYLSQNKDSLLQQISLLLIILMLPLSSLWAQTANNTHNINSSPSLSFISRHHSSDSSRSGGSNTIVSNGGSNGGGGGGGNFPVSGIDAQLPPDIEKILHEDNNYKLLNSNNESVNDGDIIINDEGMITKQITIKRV

[4] = target: T4, Zb.Ste2, Ste2-like mating GPCR of Zygosaccharomyces bailii (Zygosaccharomyces bailii)
T4 chain: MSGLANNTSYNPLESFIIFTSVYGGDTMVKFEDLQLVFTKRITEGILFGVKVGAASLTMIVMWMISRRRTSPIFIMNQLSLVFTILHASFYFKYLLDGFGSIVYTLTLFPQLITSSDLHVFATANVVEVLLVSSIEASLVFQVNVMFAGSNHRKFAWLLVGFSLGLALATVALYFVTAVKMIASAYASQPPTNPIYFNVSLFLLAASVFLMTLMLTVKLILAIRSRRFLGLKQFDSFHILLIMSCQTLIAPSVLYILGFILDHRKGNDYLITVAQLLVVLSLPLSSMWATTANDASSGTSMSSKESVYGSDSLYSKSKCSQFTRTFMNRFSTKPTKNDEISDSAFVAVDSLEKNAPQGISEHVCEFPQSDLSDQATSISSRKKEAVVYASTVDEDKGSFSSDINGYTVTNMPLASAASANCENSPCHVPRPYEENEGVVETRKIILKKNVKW

[5] = target: T5, Cp.Ste2, Ste2-like mating GPCR of Candida parapsilosis (Candida parapsilosis)
T5 chain: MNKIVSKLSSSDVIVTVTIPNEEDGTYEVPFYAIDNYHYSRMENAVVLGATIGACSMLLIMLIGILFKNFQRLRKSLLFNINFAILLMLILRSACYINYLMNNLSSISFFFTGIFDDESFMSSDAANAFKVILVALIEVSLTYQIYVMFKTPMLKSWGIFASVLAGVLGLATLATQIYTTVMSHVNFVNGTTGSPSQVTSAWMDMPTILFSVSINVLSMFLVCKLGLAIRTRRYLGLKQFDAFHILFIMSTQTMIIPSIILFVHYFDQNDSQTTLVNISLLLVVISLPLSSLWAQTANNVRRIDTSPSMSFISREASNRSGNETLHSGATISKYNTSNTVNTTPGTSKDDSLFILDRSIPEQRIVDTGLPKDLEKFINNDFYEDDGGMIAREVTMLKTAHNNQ

[6] = target: T6, Vp2.Ste2, Ste2-like mating GPCR of Vanderwaltozyma polyspora2 (Vanderwaltozyma polyspora)
T6 chain: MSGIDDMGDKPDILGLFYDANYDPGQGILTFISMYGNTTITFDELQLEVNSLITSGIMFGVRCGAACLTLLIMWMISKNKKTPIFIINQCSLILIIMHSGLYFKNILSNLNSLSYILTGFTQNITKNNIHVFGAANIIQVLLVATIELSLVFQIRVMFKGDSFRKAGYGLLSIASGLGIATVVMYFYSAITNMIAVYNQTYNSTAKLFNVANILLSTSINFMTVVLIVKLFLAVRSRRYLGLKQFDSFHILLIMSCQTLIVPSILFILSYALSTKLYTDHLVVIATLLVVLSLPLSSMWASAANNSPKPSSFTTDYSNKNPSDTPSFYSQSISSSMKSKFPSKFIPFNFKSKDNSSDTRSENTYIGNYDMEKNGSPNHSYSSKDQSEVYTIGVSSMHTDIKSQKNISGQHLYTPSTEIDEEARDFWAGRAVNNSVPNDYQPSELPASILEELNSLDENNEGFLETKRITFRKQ

[7] = target: T7, Cau.Ste2, Ste2-like mating GPCR of Candida auris (Candida auris)
T7 chain: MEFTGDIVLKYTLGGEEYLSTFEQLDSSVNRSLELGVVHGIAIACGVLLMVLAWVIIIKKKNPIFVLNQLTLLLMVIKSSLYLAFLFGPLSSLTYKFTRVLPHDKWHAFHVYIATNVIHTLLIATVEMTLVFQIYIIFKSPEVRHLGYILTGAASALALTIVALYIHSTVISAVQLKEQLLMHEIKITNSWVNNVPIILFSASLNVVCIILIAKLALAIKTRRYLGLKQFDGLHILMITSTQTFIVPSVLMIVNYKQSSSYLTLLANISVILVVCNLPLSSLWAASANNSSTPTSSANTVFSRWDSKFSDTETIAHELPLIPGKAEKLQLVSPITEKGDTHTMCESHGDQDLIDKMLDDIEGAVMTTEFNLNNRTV

[8] = target: T8, Cn.Ste2, Ste2-like mating GPCR of Candida tenuis (Candida tenuis)
T8 chain: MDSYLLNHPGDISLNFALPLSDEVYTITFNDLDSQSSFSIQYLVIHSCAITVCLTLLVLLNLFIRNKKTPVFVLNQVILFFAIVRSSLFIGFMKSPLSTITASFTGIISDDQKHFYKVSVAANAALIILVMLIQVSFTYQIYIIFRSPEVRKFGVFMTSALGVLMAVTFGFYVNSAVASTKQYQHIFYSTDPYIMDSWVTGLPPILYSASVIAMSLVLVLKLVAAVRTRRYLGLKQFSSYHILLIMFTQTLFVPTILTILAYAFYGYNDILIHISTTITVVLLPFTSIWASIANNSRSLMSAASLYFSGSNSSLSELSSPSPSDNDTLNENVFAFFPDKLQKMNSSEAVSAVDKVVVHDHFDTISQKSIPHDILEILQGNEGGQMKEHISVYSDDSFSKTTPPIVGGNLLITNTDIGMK

[9] = target: T9, Cg.Ste2, Ste2-like mating GPCR of Candida glabrata (Candida glabrata)
T9 chain: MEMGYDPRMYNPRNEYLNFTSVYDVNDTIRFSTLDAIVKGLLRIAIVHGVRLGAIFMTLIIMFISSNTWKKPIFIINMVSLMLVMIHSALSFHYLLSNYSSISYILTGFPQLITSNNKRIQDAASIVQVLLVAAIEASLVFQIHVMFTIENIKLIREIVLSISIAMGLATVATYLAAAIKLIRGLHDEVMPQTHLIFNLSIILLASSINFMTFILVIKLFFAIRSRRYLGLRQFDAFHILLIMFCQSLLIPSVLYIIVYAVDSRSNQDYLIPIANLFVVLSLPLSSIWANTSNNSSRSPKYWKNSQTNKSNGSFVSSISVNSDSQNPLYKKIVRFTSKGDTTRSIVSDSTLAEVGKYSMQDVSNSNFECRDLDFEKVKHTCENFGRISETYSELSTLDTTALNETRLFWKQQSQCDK

[10] = target: T10, Cl.Ste2, Ste2-like mating GPCR of Candida (Clavispora) lusitaniae (Candida (Clavispora) lusitaniae)
T10 chain: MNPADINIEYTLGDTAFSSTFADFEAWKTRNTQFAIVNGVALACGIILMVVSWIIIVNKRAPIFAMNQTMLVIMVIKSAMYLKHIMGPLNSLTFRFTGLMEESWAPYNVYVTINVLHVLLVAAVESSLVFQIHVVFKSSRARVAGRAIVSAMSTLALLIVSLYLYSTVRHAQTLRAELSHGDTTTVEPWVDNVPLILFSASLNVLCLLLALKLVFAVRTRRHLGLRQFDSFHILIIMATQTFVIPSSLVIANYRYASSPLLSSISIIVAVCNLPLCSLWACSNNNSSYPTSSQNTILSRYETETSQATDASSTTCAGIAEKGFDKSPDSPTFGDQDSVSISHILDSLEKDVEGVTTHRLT

B1: Cgu peptide ligand #1 KKNSRFLTYWFFQPIM (peptide)
peptide: KKNSRFLTYWFFQPIM
Bttm (FUS1p-RFP reporter) [1]: 41.2 fluorescence/A600 (not printed) | EC50 (FUS1p-RFP reporter) [1]: -7.4 log10 M (not printed) | Fold Change (FUS1p-RFP reporter) [1]: 5.1 fold | Span (FUS1p-RFP reporter) [1]: 170 fluorescence/A600 (not printed) | Top (FUS1p-RFP reporter) [1]: 212 fluorescence/A600 (not printed)

B2: Zr peptide ligand #1 (Table 3: …) (peptide)
peptide: HFIELDPGQPMF
Bttm (FUS1p-RFP reporter) [2]: 57.2 fluorescence/A600 (not printed) | EC50 (FUS1p-RFP reporter) [2]: -7.4 log10 M (not printed) | Fold Change (FUS1p-RFP reporter) [2]: 1.9 fold | Span (FUS1p-RFP reporter) [2]: 52.7 fluorescence/A600 (not printed) | Top (FUS1p-RFP reporter) [2]: 110 fluorescence/A600 (not printed)

B3: Ca peptide ligand #1 GFRLTNFGYFEPG (peptide)
peptide: GFRLTNFGYFEPG
Bttm (FUS1p-RFP reporter) [3]: 38.9 fluorescence/A600 (not printed) | EC50 (FUS1p-RFP reporter) [3]: -7.7 log10 M (not printed) | Fold Change (FUS1p-RFP reporter) [3]: 7 fold | Span (FUS1p-RFP reporter) [3]: 233 fluorescence/A600 (not printed) | Top (FUS1p-RFP reporter) [3]: 272 fluorescence/A600 (not printed)

B4: Zb peptide ligand #1 HLVRLSPGAAMF (peptide)
peptide: HLVRLSPGAAMF
Bttm (FUS1p-RFP reporter) [4]: 39.1 fluorescence/A600 (not printed) | EC50 (FUS1p-RFP reporter) [4]: -5.8 log10 M (not printed) | Fold Change (FUS1p-RFP reporter) [4]: 7.5 fold | Span (FUS1p-RFP reporter) [4]: 253 fluorescence/A600 (not printed) | Top (FUS1p-RFP reporter) [4]: 292 fluorescence/A600 (not printed)

B5: Cp peptide ligand #1 KPHWTTYGYYEPQ (peptide)
peptide: KPHWTTYGYYEPQ
Bttm (FUS1p-RFP reporter) [5]: 36.2 fluorescence/A600 (not printed) | EC50 (FUS1p-RFP reporter) [5]: -8.5 log10 M (not printed) | Fold Change (FUS1p-RFP reporter) [5]: 7 fold | Span (FUS1p-RFP reporter) [5]: 218 fluorescence/A600 (not printed) | Top (FUS1p-RFP reporter) [5]: 254 fluorescence/A600 (not printed)

B6: Vp2 peptide ligand #1 WHWLRLRYGEPIY (peptide)
peptide: WHWLRLRYGEPIY
Bttm (FUS1p-RFP reporter) [6]: 28 fluorescence/A600 (not printed) | EC50 (FUS1p-RFP reporter) [6]: -7.7 log10 M (not printed) | Fold Change (FUS1p-RFP reporter) [6]: 7.7 fold | Span (FUS1p-RFP reporter) [6]: 187 fluorescence/A600 (not printed) | Top (FUS1p-RFP reporter) [6]: 215 fluorescence/A600 (not printed)

B7: Cau peptide ligand #1 KWGWLRFFPGEPFV (peptide)
peptide: KWGWLRFFPGEPFV
Bttm (FUS1p-RFP reporter) [7]: 50.6 fluorescence/A600 (not printed) | EC50 (FUS1p-RFP reporter) [7]: -8.1 log10 M (not printed) | Fold Change (FUS1p-RFP reporter) [7]: 6.7 fold | Span (FUS1p-RFP reporter) [7]: 286 fluorescence/A600 (not printed) | Top (FUS1p-RFP reporter) [7]: 337 fluorescence/A600 (not printed)

B8: Cn peptide ligand #1 FSWNYRLKWQPIS (peptide)
peptide: FSWNYRLKWQPIS
Bttm (FUS1p-RFP reporter) [8]: 29.7 fluorescence/A600 (not printed) | EC50 (FUS1p-RFP reporter) [8]: -7.4 log10 M (not printed) | Fold Change (FUS1p-RFP reporter) [8]: 5.1 fold | Span (FUS1p-RFP reporter) [8]: 122 fluorescence/A600 (not printed) | Top (FUS1p-RFP reporter) [8]: 152 fluorescence/A600 (not printed)

B9: Cg peptide ligand #1 WHWVRLRKGQGLF (peptide)
peptide: WHWVRLRKGQGLF
Bttm (FUS1p-RFP reporter) [9]: 30.5 fluorescence/A600 (not printed) | EC50 (FUS1p-RFP reporter) [9]: -5.9 log10 M (not printed) | Fold Change (FUS1p-RFP reporter) [9]: 7 fold | Span (FUS1p-RFP reporter) [9]: 183 fluorescence/A600 (not printed) | Top (FUS1p-RFP reporter) [9]: 214 fluorescence/A600 (not printed)

B10: Cl peptide ligand #1 KWKWIKFRNTDVIG (peptide)
peptide: KWKWIKFRNTDVIG
Bttm (FUS1p-RFP reporter) [10]: 39.8 fluorescence/A600 (not printed) | EC50 (FUS1p-RFP reporter) [10]: -7.5 log10 M (not printed) | Fold Change (FUS1p-RFP reporter) [10]: 1.4 fold | Span (FUS1p-RFP reporter) [10]: 186 fluorescence/A600 (not printed) | Top (FUS1p-RFP reporter) [10]: 226 fluorescence/A600 (not printed)
